Results taken from the DeepSol protein solubility set.

Experiment: soluble on expression in E. coli; label from the status in PepcDB or PDB records

Sequence | soluble on expression in E. coli
MAHHHHHHMGTLEAQTQGPGSMLKSVGVILVLSSPSGCGKTTVANKLLEKQKNNIVKSVSVTTRAARKGEKEGKDYYFVDREEFLRLCSNGEIIEHAEVFGNFYGVPRKNLEDNVDKGVSTLLVIDWQGAFKFMEMMREHVVSIFIMPPSMEELRRRLCGRRADDSEVVEARLKGAAFEISHCEAYDYVIVNEDIEETADRISNILRAEQMKTCRQVGLRELLESRFPIED | soluble
MSSQVSTSRGLPSPSKLGTFESPHTWQMSGPTGQAEAGSSDDQDIRLLSVSWNQDFGCFAAGTSNGFRIFNCDPFKETFRRDLKSGGFGIVEMLFRCNILALVGGGSNAHYPPNKVMIWDDHRSHCIGEFAFRSDVRAVKLGKDYIVIVLERKIYVYNFTDLKLLHQIETQSNPKGLCCLSHHSNTSVLACPGVHQGHVRVEHFGLKVTRMISAHDSHISCMALTMDGLLLATASMKGTLIRIFNTMDGTRLQEVRRGLDKADIYSIALSPNVQWLAVSSDKGTVHIFSLRVRVAGEDASNEQRSLEGPRMDHQNSSSSIDPLIQTNTGSNASSSLSFMKGILPKYFSSEWSFAQFHLPEVTRYIVAFGAQNTVMMVGLDGSFYRCSFDQVNGGQMLQKEYFRFIKADLTPLRTSAP | not soluble
MKERIVGQSGELFCFGQMPVWKVENLPEVLLSGYSSEEGEWVCLNVLQGDVEVRAPDGAAEVWSAESGDCVFAPQQVFSVKPKTDDAEIRLSLYCAAADYFHKKYGMSATHSAVAAAQDTVPAGRALDMGCGQGRNALFLGLKGFDVTAADCNPAALANVAELAEAEGLNVRTLEYDLNAAALQGEFDYIVATVVLMFLMPQRVPDVIADMQAHTAAGGYNLIVSAMDTADFPCPMPFPFKFKEGELKDYYRDWELVEYKEELGAMHAKDENGNPIRFKFVTMLAKKPGLEHHHHHH | soluble
SYTEVRELVNFVCRYLFGHIPRRPVGIFGAELGNYLVSHFSSTWDVHHPKNGEMKRMINTTTSLCFASSAEEAGVPPSDVLRLLPTNMIIFANPGHVFVRLSENGIETPIWIGDVNCDENYQSVPEYVVRTAAIRAEPCSNLGAAGKSVLVGKKPLLTNDKAALEMVNTMYSPLAREKCDDINANLSHLREMYPFRFVYKPSSAQTFSGVEFSQTRFGSSKSRPDLQTMDVIKYLSSQQVSSSSSPSFTYSSINDQMRYSPRF | soluble
MPKISSRDGGRPAQRTVNPIIVTRRGKIARLESGLTPQEAQIEDLVFLRKVLNRADIPYLLIRNHKNRPVLAINIELRAGLERALAAACATEPMYAKTIDEPGLSPVLVATDGLSQLVDPRVVRLYRRRIAPGGFRYGPAFGVELQFWVYEETVIRCPVENSLSRKVLPRNEITPTNVKLYGYKWPTLDGMFAPHASDVVFDIDMVFSWVDGSDPEFRARRMAQMSQYVVGEGDDAEARIRQIDELKYALRSVNMFAPWIRRIFIATDSTPPPWLAEHPKITIVRAEDHFSDRSALPTYNSHAVESQLHHIPGLSEHFLYSNDDMFFGRPLKASMFFSPGGVTRFIEAKTRIGLGANNPARSGFENAARVNRQLLFDRFGQVITRHLEHTAVPLRKSVLIEMEREFPEEFARTAASPFRSDTDISVTNSFYHYYALMTGRAVPQEKAKVLYVDTTSYAGLRLLPKLRKHRGYDFFCLNDGSFPEVPAAQRAERVVSFLERYFPIPAPWEKIAADVSRRDFAVPRTSAPSEGALEHHHHHH | not soluble
MGSDKIHHHHHHMAKCNAVAGFNALNGVQLNLFTTDELKAIHYATMEVLMDPGIQVSDPEARQIFKENGCEVNEQTNVVKIPEYLVRRALQLAPSRFVLWGRDKKYNTVQEAGGKVHWTCFGTGVKMCKYQEGKYVTVDSVEQDIADIAKLCDWAENIDYFSLPVSARDIAGQGAQDVHETFTPLTNTAKHFHHIDPVGENVEYYRDIVNAYYGGDEEEARKKPIFSMLLCPTSPLELSVNACQVIIKGARFGMPVNVLSMAMSGGSSPVYLAGTLVTHNAEVLAGITLAQLTVPGAKVWYGSSTTTFDLKKGTAPVGSPELGLISASVAKLAQFYGLPAFVAGT | not soluble
MSKLDLGRVDLLSMLGNSSSAGVDTAKGVIPFSTSGATWAVPRLSEDGITSHFLRRRGYVTMTQGGSRDQNAAVRKILSLIIAYDIQTQACFFISNEESMRITMAETMGVKDRPNARTNSWAEVSDSDINRGIAKALKEGNLTLDENQKDGFMKLVHAFVADILAQSGHYKPVTSVTYFSAPIDMESDYLDPFSIAIIRDVLDDSPFSELRYDARAMSELEDRDVPITRFSRVMAQMGNAMVRNIMVLNEAAQRKLRGLAVVGEIVHGRVRAPVRYLNDSFIQTLRSNINFHLLTRTTPERWAQSWIQAFGSLKGWVDAINGIADATTEEEKKKLAMQTSMDLELLSDLTPLIRDAATSVEKFVTFAPLSFYQGLGSVTQIRALDSSTNLAAVIVRYAAKEINLIPAYQSFQVPTVDVGVKKTAIMDQRLSLQLPEFSEDQFFGMLEQRMQNMSDSEVAELVDRIAKGETPFGDVVKQLPGTSTLLVTNGYYMGGLLTNEDKIIPGDASVPALLYMQAASFASSVRFPPGEYPVFHHESSNGDVRLTDQVSADAQLSHSAVETANPLNFLVACNVSVHTPSIAIDIIEPMPDLTRRGTTEYVHKGEIKVAAIPSLPPKSADRKAQVSRETAKFERVLYKARKGGAQVAAPIDLESLFGIAVNLAVPTVKHVYSPDSKTKLALDIIKGLESEGDKAAATRLLMTLARAYTGTYSSLGLRRRDEITGIAAQPSDVAMQEFALQSGVQTLKAVAKHTGIMEVATIEMVEEKVRSLDDNRFYEIAAEVVLRALKGM | not soluble
MGSDKIHHHHHHMPDMSMFGILNTALTGIHAHKLAMNIVGHNIANASTPGYSRQRPVIEANPPIPLTTLTQPSFPLQMGTGARVKTIVRLRDAFLDVQYRQVNNRYNYWDTVLSNLHFIEQLLAEPGEDGIRSLVDNFWNAFKEVMSDPSSTASKAEVVSRAQQMVSQIKDLYGRLEQLREDIDAEIVQRVSEINQMIKRLADLNNKIRTSMMLNSPPNDLLDERDRILDELSNLANINYTEAEDGQITLRIGNQIVLNGSTYRELRALERPYGKGYHELFVGNSQLILSDGKLKALIDLRDSSIVKYMRKLDEFVLFITDSLNLVHRDGFESNGVTTNLNFFKKIEAFSDDPSIFRIKGNRKLEMGPYHTVTGLHSANSQAEIEGRRFNSNDVVLSFDGGSSNVLNISAGTTIGDLVGSWNLLGTSLKVGTHAGGYRLYLEDSTGSLRNRLFLSLGDSLSQMGFDTETKGYITIKESDLSGLSSGVYNINVEYILEDGTRQTETISVDLSSGVNLSNIEASINSSSHLRAQIYADPSTGENMLVIVPDEQLNFDPSAVKVLSDDDFFTESNAFVRNYEVLKYKDTLENIFYGQTGFDPTRPFTITINSTDIEIDPAVDTLETLVEKINEKNTGVLADLTPHHSLVFRASSLYDFDLRMMEIKGPQGFFEAVGFVDPDGDPTTFDWNTSFTLVSKSDDFTTLSERFKVADILTFDRAPYDEPLNIVNQFEVSSSLATNPANLAVDVGYALENSDWNATSIKPSGGANPELLETIQNLYTRKMLSNGKESFYEFFGGVVSELGVEAETASNLKNNTEILRQEIDNAREEVKGVSLDEEMANMIEYQHAFSAAAKVITAVDQMIQTVINMVG | not soluble
MAETEILKCIGCGAPLQSEDLDAPGYVPESSLYKEDVICKRCFRLKNYNEVQDVGLDSEDFLNLLNGLADKKGIVVNVVDVFDFEGSFINAIKRIVGNKQIILVGNKLDLLPKQINKRRVKEWLKKTARKYGLDAEDVILISAEKNEGIEDLLNAINTLRNNDDVYIVGTTNVGKSTLINKLIERSVGEKNVVTTSRFPGTTLDMIDIPLDDTSFMYDTPGVIQEHQMTHYVTEKELKTIMPKKEVKQRVYQLNEGQTLFFGGLARIDYISGGKRPLVCYFSNDLNIHRTKTENANELWRNQLGDVLSPPNNPDHFDLQNVKAVRLETGKEKRDVMISGLGFITIDEGAKIIVRVPKNVDVVLRNSIMLEHHHHHH | not soluble
MIGNFTIVDGHVHTFSSEEVSLKVLKSFNKIYNIEFENPGTGTIEDVLNNMKNEGIDYTVMANFAPVKILHANNKWTLEEARKHPNLIPLVSFHPDMDVSFTSLLEEYISDGAKGIKLHPMAQGFDPRDERLKGLYEFCNDIAFPIVFHCGRVANARLNSFSDVETLEPLIAMYENISFVLTHMADGNVKDVLRLSRTYKNVYFDTSIVISGYPPIRETNKPSWLDDSIPEGVINEIGAHRVVFGSDYPWGSPAWDLKRFMSMKLDDEEKKNILGENAMKLFLNTAYN | soluble
MGHHHHHHGGHMSLPKFSPCLWFNTQAEEAANFYTTIFEKGAILSKTNYVNEEHQPQGTSLMTIEFTLANQTIIGLNGGPEFSFTPASSFFVECTTLPQTETLWKNLTADGQILMPFGEYPFSPLYGWVVDKFGVSWQVSFSGKEQTIVPTFMFANEKYGEAAKALSEWLAIFGPGEIIEKVEYEDGNIAQALFTLQEQPFRVMDARDKHDFDFTMAFSIYIDCENQEEIDRLWQQVTAKGKEWPCGWMEDQFGVSWQTGNPELKRYLSDSNPARANEVTKKLYQMKKIDLNQLKEVYDKYNHEGGS | soluble
MVGLADVAVLYSGGKDSNYALYWALKSGLRVRYLVSMVSENEESYMYHTPNVELTSLQARALGIPIIKGFTKGEKEKEVEDLKNVLEGLKVDGIVAGALASRYQKERIENVARELGLKVYTPAWEKDPYQYMLEIIKLGFKVVFVAVSAYGLNESWLGRELNYKNLEELKKLSEKYGIHIAGEGGEFETFVLDMPFFKAKIVIDDAEKFWDGLSGKFIIKRAHLEWK | soluble
AQVEPTVAYPHIPSNGRVAGSDRIRVTHAYVGSCTNGRITDLRDVARILKGRKVAQDVQMIVVPATQAIWKQAAQEGLLEIFVDAGASVSYPSCGACLGMHSGVLGPDDICISSSNRNFVGRMGDPSAQIYLASPATVAASAVEGFIADPRRYDAEGND | not soluble
MSTCATVSRDLDEPLAGTAATARTWLLLEQPGPWGTKALTSSHLDQALGRALEAAAEGTGVRIALIRRPGRHADCGTPAVRQVYAAHTVPGNVWLHGAMTSDPEQLLDLDFTALGMGDPHTFDRLLGGRPHTGDPLALVCTNGKRDRCCALLGRPLAAELAASGVTGAWEVTHLGGHRFAPTLLILPFGYAYGRAEAPHIKEVLQGVREGRVVVEGCRGRSAWERPGQAAELAVRTAAHEYAADALTVVATDGTAPRWEVTVAHADGRLWRVIVAQGASLPPRPESCGSALGSPARMDVVAVRELIPTEIDATSR | not soluble
MSLSPEGVNGNRCSESFPLLEKYRIGKVIGDGNFAVVKECVDRYTGKEFALKIIDKAKCCGKEHLIENEVSILRRVKHPNIIMLVEEMETATDLFLVMELVKGGDLFDAITSSTKYTERDGSAMVYNLANALRYLHSLSIVHRDIKPENLLVCEYPDGTKSLKLGDFGLATVVEGPLYTVCGTPTYVAPEIIAETGYGLKVDVWAAGVITYILLCGFPPFRSENNLQEDLFDQILAGKLEFPAPYWDNITDSAKELISQMLQVNVEARCTAGEILSHPWVSDDASQENNMQAEVTGKLKQHFNNALPKQNSTTTGVSVIMNTALDKEGQIFCSKLCQDSSRPSREGHHHHHH | not soluble
LVPEAPAPFEEPLPPEATDQWQDRALCAQTDPEAFFPEKGGSTREAKKICMGCEVRHECLEYALAHDERFGIWGGLSERERRRLKRGII | soluble
MGSDKIHHHHHHMKYSPASETIFVADNQERTMRVEVMEHYGLTQSIEQAGYYETAHHKQLMKDIKGAIREGRLIAVCGVVGSGKTVTLRRLQQQLLDENKIIVARSLSVDKQSVRLATLINALFYDLAQDKQVQIHKQGERRERELQELVKKGKRPVALFVDEAHDLNGNTLTGLKRLMEVVEDGGGRLSVVLAGHPKLRNDLRRPTMEEIGYRTDIFTLDGITGSQREYIQWLLKTSTGKGKPEDILTTEAVDLLAMKLRTPLQVQLHLTLAMEAGYQTGEKPITATLVESVLSRQLDDLEPTLTRHGYRLKDMVEQFDAKPAEIRALFNNQLDPARTAELRDRMLAVGLPI | not soluble
